This is an account of results in publication PMC12416549 (2024).

Changes are numbered by the printed parent chain. Names may count otherwise.

This assay concerns the target T1, TNFR1 (Homo sapiens, UniProt P19438).
T1 chain: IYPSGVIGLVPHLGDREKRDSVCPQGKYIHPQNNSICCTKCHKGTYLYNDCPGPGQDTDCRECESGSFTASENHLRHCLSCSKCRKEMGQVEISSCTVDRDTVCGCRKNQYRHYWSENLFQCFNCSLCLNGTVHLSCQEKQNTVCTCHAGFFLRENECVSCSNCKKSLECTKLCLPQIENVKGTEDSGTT
The assay is described as follows: yeast display SC50.

B1: A51V (designed binder)
chain: SMEEEVEKAAKEYEKKKKEAIEKHLEKLKAKDKEAAERFLKELEEAAKEYVKDEAKTMSEEEAKRRAKKYKEKVLLSELSEEEQKEIKEAEEKLVRTILKYVEEAAK
With B1, the “apparent Kd (screen)” value worked out at 9.41 nM.

B2: K41L (designed binder)
chain: B1 chain with K41L, V51A
B2: the “apparent Kd (screen)” value is 0.446 nM.

B3: E49P (designed binder)
chain: B1 chain with E49P, V51A
Turning to B3, the “apparent Kd (screen)” value was 4.39 nM.

B4: L25K (designed binder)
chain: B1 chain with L25K, V51A
Take B4: the “apparent Kd (screen)” value stood at 1.4 nM.

B5: R65M (designed binder)
chain: B1 chain with V51A, R65M
On to B5, for which the “apparent Kd (screen)” value came to 0.956 nM.

B6: R65C (designed binder)
chain: B1 chain with V51A, R65C
In the case of B6, the “apparent Kd (screen)” value is 6.43 nM.

B7: E12S (designed binder)
chain: B1 chain with E12S, V51A
For the molecule B7, the “apparent Kd (screen)” value amounted to 0.446 nM.

B8: E14L (designed binder)
chain: B1 chain with E14L, V51A
With B8, the “apparent Kd (screen)” value was 7.07 nM.

B9: K107Q (designed binder)
chain: B1 chain with V51A, K107Q
B9: the “apparent Kd (screen)” value worked out at 1.16 nM.

B10: E72N (designed binder)
chain: B1 chain with V51A, E72N
B10: the “apparent Kd (screen)” value is 1.27 nM.

B11: L43H (designed binder)
chain: B1 chain with L43H, V51A
For B11, the “apparent Kd (screen)” value is 3.63 nM.

B12: A9G (designed binder)
chain: B1 chain with A9G, V51A
Take B12: the “apparent Kd (screen)” value was 1.05 nM.

B13: E4Q (designed binder)
chain: B1 chain with E4Q, V51A
On to B13, for which the “apparent Kd (screen)” value worked out at 0.446 nM.

B14: S80M (designed binder)
chain: B1 chain with V51A, S80M
For B14, the “apparent Kd (screen)” value turned out to be 1.16 nM.

B15: L75P (designed binder)
chain: B1 chain with V51A, L75P
B15: the “apparent Kd (screen)” value turned out to be 3.99 nM.

B16: Q84H (designed binder)
chain: B1 chain with V51A, Q84H
Take B16: the “apparent Kd (screen)” value stood at 3.3 nM.

B17: K48H (designed binder)
chain: B1 chain with K48H, V51A
In the case of B17, the “apparent Kd (screen)” value was found to be 0.718 nM.

B18: E3V (designed binder)
chain: B1 chain with E3V, V51A
As to B18, the “apparent Kd (screen)” value came to 1.69 nM.

B19: R38C (designed binder)
chain: B1 chain with R38C, V51A
With B19, the “apparent Kd (screen)” value amounted to 2.25 nM.

B20: E22P (designed binder)
chain: B1 chain with E22P, V51A
Take B20: the “apparent Kd (screen)” value turned out to be 12.5 nM.

B21: E42S (designed binder)
chain: B1 chain with E42S, V51A
On to B21, for which the “apparent Kd (screen)” value is 7.78 nM.

B22: E14Y (designed binder)
chain: B1 chain with E14Y, V51A
Regarding B22, the “apparent Kd (screen)” value turned out to be 10.4 nM.

B23: I21G (designed binder)
chain: B1 chain with I21G, V51A
On to B23, for which the “apparent Kd (screen)” value stood at 0.49 nM.

B24: E37L (designed binder)
chain: B1 chain with E37L, V51A
Take B24: the “apparent Kd (screen)” value came to 0.869 nM.

B25: E44S (designed binder)
chain: B1 chain with E44S, V51A
As to B25, the “apparent Kd (screen)” value was 1.86 nM.

B26: K93E (designed binder)
chain: B1 chain with V51A, K93E
As for B26, the “apparent Kd (screen)” value worked out at 0.956 nM.

B27: A90N (designed binder)
chain: B1 chain with V51A, A90N
As to B27, the “apparent Kd (screen)” value was 0.446 nM.

B28: L76Q (designed binder)
chain: B1 chain with V51A, L76Q
B28: the “apparent Kd (screen)” value came to 1.86 nM.

B29: K15N (designed binder)
chain: B1 chain with K15N, V51A
As for B29, the “apparent Kd (screen)” value is 0.539 nM.

B30: I87V (designed binder)
chain: B1 chain with V51A, I87V
Consider B30, for which the “apparent Kd (screen)” value is 3 nM.

B31: T97F (designed binder)
chain: B1 chain with V51A, T97F
With B31, the “apparent Kd (screen)” value stood at 0.405 nM.

B32: V102R (designed binder)
chain: B1 chain with V51A, V102R
Consider B32, for which the “apparent Kd (screen)” value was determined as 2.25 nM.

B33: R65D (designed binder)
chain: B1 chain with V51A, R65D
B33: the “apparent Kd (screen)” value came out at 0.405 nM.

B34: A51H (designed binder)
chain: B1 chain with V51H
Turning to B34, the “apparent Kd (screen)” value came to 0.49 nM.

B35: T97R (designed binder)
chain: B1 chain with V51A, T97R
Regarding B35, the “apparent Kd (screen)” value was found to be 0.49 nM.

B36: A30V (designed binder)
chain: B1 chain with A30V, V51A
For B36, the “apparent Kd (screen)” value was 0.869 nM.

B37: T97M (designed binder)
chain: B1 chain with V51A, T97M
As to B37, the “apparent Kd (screen)” value stood at 0.539 nM.

B38: E72W (designed binder)
chain: B1 chain with V51A, E72W
On to B38, for which the “apparent Kd (screen)” value came out at 0.446 nM.

B39: A67L (designed binder)
chain: B1 chain with V51A, A67L
Turning to B39, the “apparent Kd (screen)” value was found to be 7.78 nM.

B40: E86L (designed binder)
chain: B1 chain with V51A, E86L
As for B40, the “apparent Kd (screen)” value came to 1.4 nM.

B41: E81M (designed binder)
chain: B1 chain with V51A, E81M
Take B41: the “apparent Kd (screen)” value amounted to 0.539 nM.

B42: Q84C (designed binder)
chain: B1 chain with V51A, Q84C
Consider B42, for which the “apparent Kd (screen)” value amounted to 4.83 nM.

B43: M58N (designed binder)
chain: B1 chain with V51A, M58N
As for B43, the “apparent Kd (screen)” value was 13.8 nM.

B44: E83W (designed binder)
chain: B1 chain with V51A, E83W
As for B44, the “apparent Kd (screen)” value was 2.25 nM.

B45: K100D (designed binder)
chain: B1 chain with V51A, K100D
On to B45, for which the “apparent Kd (screen)” value was 2.48 nM.

B46: K41T (designed binder)
chain: B1 chain with K41T, V51A
Turning to B46, the “apparent Kd (screen)” value came out at 0.956 nM.

B47: A35L (designed binder)
chain: B1 chain with A35L, V51A
Consider B47, for which the “apparent Kd (screen)” value amounted to 0.446 nM.

B48: E92R (designed binder)
chain: B1 chain with V51A, E92R
As to B48, the “apparent Kd (screen)” value came out at 11.4 nM.

B49: E3G (designed binder)
chain: B1 chain with E3G, V51A
Turning to B49, the “apparent Kd (screen)” value stood at 3 nM.

B50: K11F (designed binder)
chain: B1 chain with K11F, V51A
On to B50, for which the “apparent Kd (screen)” value was determined as 0.49 nM.

B51: K52I (designed binder)
chain: B1 chain with V51A, K52I
Regarding B51, the “apparent Kd (screen)” value was 0.446 nM.

B52: E5M (designed binder)
chain: B1 chain with E5M, V51A
On to B52, for which the “apparent Kd (screen)” value stood at 0.446 nM.

B53: S80L (designed binder)
chain: B1 chain with V51A, S80L
Regarding B53, the “apparent Kd (screen)” value was 0.539 nM.

B54: E37H (designed binder)
chain: B1 chain with E37H, V51A
Take B54: the “apparent Kd (screen)” value was determined as 0.446 nM.

B55: E103L (designed binder)
chain: B1 chain with V51A, E103L
Regarding B55, the “apparent Kd (screen)” value is 3 nM.
